Source: publication PMC3722578 (FEBS Open Bio, 2013)

Molecular target: the molecule itself
Assay: SEC

B1: PKD1 domain from Vibrio cholerae metalloprotease PrtV (residues Glu755-Asn839) (domain or fragment)
chain: GAMENIAPVARFELKVEGLSVMSQNTSSDSDGNIVSYLWDFGNGQTSTEAAPTWSYTKAGSYSVTLTVTDDKGDSDTHQQTIKVDTPN
stoichiometry N: 2
